Data on one molecule can be found in US10117953B2, “Antibody drug conjugates” (Novartis AG, priority 2013, dated 2018).

One series relates to Uke-1 cells. Description: ADCC activity in vitro (Calcein release, NK3.3 effector cells). It is filed as cell-based, human. The conditions noted are these: effector to target ratio 20 to 1. As to the method:
In brief, Uke-1 cells were stained with Calcein acetoxy-methyl ester (Calcein-AM; Sigma-Aldrich catalog #17783-5MG, St. Louis, Mo.), washed twice, pipetted into a 96-well microtiterplate (96 well, U-bottomed, clear plastic; Corning Costar, catalog #650 160, Tewksbury, Mass.) at a concentration of 5000 cells per well and pre-incubated for 10 min with a serial dilution of the above mentioned antibodies and proteins (from 50,000 to 0.003 μg per ml) before adding the effector NK3.3 cells for 1 hour in an effector to target ratio of 20 to 1. In order to calculate the antibody specific lysis of the target cells, a parallel incubation of target cells only without antibody or effector cells served as a baseline and negative control, whereas the positive control or maximal lysis or hundred percent specific lysis was determined by lysis of target cells only with a 1% Triton-X 100 solution. […] Following a co-incubation of target and effector cells, the microtiterplate was centrifuged and an aliquot of the supernatant fluid was transferred to another microtiterplate (96 well, flat-bottomed, black with clear bottom; Corning Costar, catalog #3904, Tewksbury, Mass.) and the concentration of free Calcein in solution was determined with a fluorescence counter (Victor 3® multilabel counter, Perkin Elmer, Waltham, Mass.).

Another series has as its system primary human mast cells. Description: Mast cell apoptosis (Caspase-Glo 3/7). Format: cell-based. The conditions noted are these: 0.05-100 nM, 1.6 nM rhSCF, 48 h. The protocol: Primary human mast cells were cultured from peripheral human blood according to the methods described by Saito et al., Nature Protocols 2006; 1(4):2178-2183. […] Following 30 min incubation at RT, luminescence was recorded on the BioTek Synergy plate reader (BioTek, Winooski, Vt.).

For a further series, the system named is Mo7e cells. Description: Mo7e proliferation assay with GM-CSF (SCF-independent). It is filed as cell-based, human. The conditions noted are these: 10 ng/ml GM-CSF, 5 days. The protocol:
To evaluate the potential antagonistic properties of the naked antibodies and the ability of the antibody drug conjugates (ADCs) to inhibit the proliferation of a cKIT-expressing cell line, MO7e (DSMZ, Catalog # ACC-104, Braunschweig, Del.) were grown in the presence or absence of cKIT ligand, Stem Cell Factor (SCF), for survival. MO7e cells were grown in either 10 ng/ml human granulocyte-macrophage colony-stimulating factor GM-CSF (R&D Systems Cat#215-GM, Minneapolis, Minn.) or 10 ng/ml human Stem Cell Factor SCF (R&D Systems Cat#255-SC) prior to seeding in 96 well plates (Costar Cat #3904, Corning, Tewksbury, Mass.) at 5000 cells/well in 100 μl dilution medium. A duplicate plate was generated for a day 0 measurement and all plates were incubated in a tissue culture incubator at 37° C. with 5% CO2 overnight. […] Assay plates were shaken gently for 20 min and the resulting luminescence intensity was measured using a Perkin Elmer 1450 Microbeta TriLux® plate reader (Perkin Elmer, Waltham, Mass.). […] Following this incubation period, relative cell viability was determined via the addition of Cell titer Glo reagent as described above. The effect of the ADCs on cell proliferation was calculated using the average of the duplicates as follows: (% Inhibition=(ADC or Ab treated)/(untreated)*100) The % inhibition data was fitted to a 4-parameter logistic equation and IC50 values were determined.

Another series deals with T1, human cKIT ECD (Homo sapiens, UniProt P10721).
T1 construct: Human cKIT tr. variant 2 , residues 26-520-TAG; His6 (C); made in house; host or cells: HEK293 derived cell lines (293FS), transient transfection
T1 sequence (P10721 26-520 isoform P10721-2): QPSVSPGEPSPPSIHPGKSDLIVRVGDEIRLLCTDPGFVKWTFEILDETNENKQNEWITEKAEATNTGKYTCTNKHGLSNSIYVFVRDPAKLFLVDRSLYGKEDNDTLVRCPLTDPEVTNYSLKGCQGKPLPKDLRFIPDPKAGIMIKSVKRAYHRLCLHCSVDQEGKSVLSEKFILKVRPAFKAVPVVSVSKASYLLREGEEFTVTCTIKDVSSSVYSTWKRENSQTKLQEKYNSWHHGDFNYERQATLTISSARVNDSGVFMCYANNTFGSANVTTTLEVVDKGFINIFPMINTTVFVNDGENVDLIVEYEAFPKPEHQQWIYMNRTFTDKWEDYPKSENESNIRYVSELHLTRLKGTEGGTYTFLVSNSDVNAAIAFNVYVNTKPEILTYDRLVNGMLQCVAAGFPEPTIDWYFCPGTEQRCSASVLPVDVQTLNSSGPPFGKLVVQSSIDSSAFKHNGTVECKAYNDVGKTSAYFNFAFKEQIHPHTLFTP
Description: SPR (Biacore 2000) affinity measurement. The conditions noted are these: Table 5. Format: binding. The protocol:
Affinity of the antibodies to cKIT species orthologues and also to cKIT was determined using SPR technology using a Biacore® 2000 instrument (GE Healthcare, Pittsburgh, Pa.) and with CM5 sensor chips.
Briefly, HBS-P (0.01 M HEPES, pH 7.4, 0.15 M NaCl, 0.005% Surfactant P20) supplemented with 2% Odyssey® blocking buffer (Li-Cor Biosciences, Lincoln, Nebr.) was used as the running buffer for all the experiments. The immobilization level and analyte interactions were measured by response unit (RU). Pilot experiments were performed to test and confirm the feasibility of the immobilization of the anti-human Fc antibody (Catalog number BR100839, GE Healthcare, Pittsburgh, Pa.) and the capture of the test antibodies.
For kinetic measurements, the experiments were performed in which the antibodies were captured to the sensor chip surface via the immobilized anti-human Fc antibody and the ability of the cKIT proteins to bind in free solution was determined. Briefly, 25 μg/ml of anti-human Fc antibody at pH 5 was immobilized on a CM5 sensor chip through amine coupling at flow rate of 5 μl/minute on all two flow cells to reach 10,500 RUs. 0.1-1 μg/ml of test antibodies were then injected at 10 μl/min for 1 minute. Captured levels of the antibodies were generally kept below 200 RUs. […]
On the technique in general: In SPR one partner is held on a chip, and binding of the other changes the refractive index at the surface.

B1: NEG085: anti-cKIT antibody of Table 1; VH SEQ ID NO 82, VL SEQ ID NO 91; derived from 9P3 (antibody, V domains shown)
VH: EVQLVESGGGLVQPGGSLRLSCAASGFAFSGYYMAWVRQAPGKGLEWVANINYPGSSTYYLDSVKGRFTISRDNAKNSLYLQMNSLRAEDTAVYYCARGDYYGTTYWYFDVWGQGTTVTVSS
VL: DIQMTQSPSSLSASVGDRVTITCRASQSISSYLNWYQQKPGKAPKLLIYYTSRLQSGVPSRFSGSGSGTDFTLTISSLQPEDFATYYCQQGRRLWSFGGGTKVEIK
In the case of B1, in the series with Uke-1 cells, the ADCC result is reported as “not able to induce ADCC even at higher concentrations”. The mast cell apoptosis entry in the series on primary human mast cells is on record as “do not lead to apoptosis of human primary mast cells ex vivo”. Besides, the “effect on cell proliferation” value with Mo7e cells was “no detrimental effect on cell proliferation”. The “reaction with human cKIT” value with human cKIT ECD is given as “nanomolar level”.
